This is an account of results in publication PMC3673994 (PLoS ONE, 2013).

For the experiment, the target named is T1, human mtRNase P (TRMT10C-SDR5C1 and PRORP) (Homo sapiens, UniProt Q7L0Y3+Q99714).
T1 construct: made in house; host or cells: E. coli
T1 sequence (Q99714 1-261): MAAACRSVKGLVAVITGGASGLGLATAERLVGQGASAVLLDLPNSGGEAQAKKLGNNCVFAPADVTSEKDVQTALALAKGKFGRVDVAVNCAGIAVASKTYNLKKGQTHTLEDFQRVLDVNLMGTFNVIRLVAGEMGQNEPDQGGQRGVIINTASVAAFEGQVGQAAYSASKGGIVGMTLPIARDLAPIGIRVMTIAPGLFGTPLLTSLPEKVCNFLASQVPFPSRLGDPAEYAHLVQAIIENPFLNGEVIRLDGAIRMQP
T1 sequence (Q7L0Y3 40-403 partner): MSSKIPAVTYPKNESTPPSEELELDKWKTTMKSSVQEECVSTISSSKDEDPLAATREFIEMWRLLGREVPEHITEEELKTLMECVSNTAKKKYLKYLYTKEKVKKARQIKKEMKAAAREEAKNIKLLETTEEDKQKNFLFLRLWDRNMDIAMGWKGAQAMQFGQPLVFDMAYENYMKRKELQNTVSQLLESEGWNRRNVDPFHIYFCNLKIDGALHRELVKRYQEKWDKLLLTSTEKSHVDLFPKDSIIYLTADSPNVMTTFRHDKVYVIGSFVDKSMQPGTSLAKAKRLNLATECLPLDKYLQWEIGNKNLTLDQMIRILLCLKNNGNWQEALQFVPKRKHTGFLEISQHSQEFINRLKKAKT
The experiment is described as follows: RNase P assay, (mt)tRNA^His precursor cleavage. Type of experiment: biochemical. The following applies: freshly dissolved fragments, up to 10 µM; three independent experiments. The text has this: Samples for analysis were withdrawn at defined intervals or at known linear-range time-points and phosphor imaging data quantitatively analyzed with ImageQuant TL 7 (GE Healthcare).

For “Aβ1–28: synthetic Aβ peptide fragment, amino acids 1–28 (rPeptide)”, the “effect on tRNA 5′-end processing by mtRNase P” value is “none of the two affected”.
The value for “Aβ25–35: synthetic Aβ peptide fragment corresponding to amino acids 25–35 (rPeptide) (GSNKGAIIGLM; Amyloid-beta protein 40; UniProt P05067 696-706, looked up, fragment)” was “none of the two affected”.
